Reference: patent publication US20230140293A1

Columns and labels:
Experiment in all cases: ELISA, gp120 on plate
[1] = target: CH505 w020.14 gp120 (HIV-1)
[2] = target: CH505 w030.28 gp120 (HIV-1)
[3] = target: CH505 transmitted/founder (TF) gp120 (HIV-1)
CH505 M11 gp120 (HIV-1) = target: CH505 M11 gp120 (HIV-1)
CH505 M5 gp120 (HIV-1) = target: CH505 M5 gp120 (HIV-1)
[4] = target: CH505 w100.B6 gp120 (HIV-1)
[5] = target: CH505 w030.21 gp120 (HIV-1)
[6] = target: CH505 w078.15 gp120 (HIV-1)
[7] = target: CH505 w053.16 gp120 (HIV-1)
[8] = target: CH505 w078.33 gp120 (HIV-1)
[9] = target: CH505 w053.31 gp120 (HIV-1)

| Substance | log AUC [1] [log AUC] | log AUC [2] [log AUC] | log AUC [3] [log AUC] | log AUC (CH505 M11 gp120 (HIV-1)) [log AUC] | log AUC (CH505 M5 gp120 (HIV-1)) [log AUC] | log AUC [4] [log AUC] | log AUC [5] [log AUC] | log AUC [6] [log AUC] | log AUC [7] [log AUC] | log AUC [8] [log AUC] | log AUC [9] [log AUC] |
| --- | --- | --- | --- | --- | --- | --- | --- | --- | --- | --- | --- |
| CH105 (antibody) | 10.4 | 9.1 | 11.2 | 11.7 | 8.6 | 11 | 10.6 | 10.1 | 9 | 8.9 | 13.5 |
| CH106 (antibody) | 11.2 | 11.7 | 11.3 | 12.8 | 8.4 | 11.8 | 10.9 | 11 | 9.8 | 9.5 | 13.4 |
